Experimental data from publication PMC7137328.

Substrate: O=P(O)(O)O[C@H]1[C@H](OP(=O)(O)O)[C@@H](OP(=O)(O)O)[C@H](OP(=O)(O)O)[C@@H](OP(=O)(O)O)[C@H]1OP(=O)(O)O
Test: purified protein
Settings: 100 mM Tris-HCl pH 7.5, 50 °C, 10 min, 0.125-4.0 mM sodium phytate, printed kcat does not agree with printed Vmax and Mw

B1: r-Aophytase (recombinant Aophytase; G1XN29 protein) (Orbilia oligospora ATCC 24927) (protein)
chain: ADKFSITLPITARTSSVESDSAAVYYPSKSKYSPIFIGNDGSAETGGFHVYELYGKRSDALVKELGAYKTGRSKLVEVVYGEDRDFVVTLSMSDGMFRVFEVDGKNGVRGLKAEKLVRGDFSAMCTWKSKVGEYVYVLGKRWGYRFLVREKKGGRGVEVVQTQEFGIPIEPNSCTVSPEGKVFLAGDSGKVFSFLAVDETAAPKIVEVGELGGGDEVKGLKIYHGKKDTYLLVGLEDGIEVFDIKKLGSSLGKIQFDDEELEVGDFAVHQTSAKGYEDGSIVFAGEDGEGKFFGVSSLTPLFKALGKGKLNTKYDPRDCTDNHARPKKCANLSDCNGYGYCPKDSRDKKATCDCFPGLTGKTCNKITCPSNCTSPSHGTCTGPNICTCIPPFTGENCATLAVPARYETEESGGADGDDPAIWIHPTDKTKSRIITTVKSEVGSGLGVYDLKGKRTGGVSGGEPNNVDVLYGVEFAGRKVDLAVAACRADDTICIYEITPTGDLVTIPGGVQPLPPAVKELEKKFKVYGSCVYHSPKTGAYHIFVNSKSSLYLQFQLSATTDGKLNTTLVRHFYAGNRGQVEGCVVDDENSSLFLGEEPYGIWSYDAEPDQPAVGTLVDNTVVDGGKLHADVEGVTLVYGKTKKEGYIIVSCQGYSEYNIYQRYPPHEFVMSFSIPDNKEKGVDRVTNTDGITAVGANLGKEWPYGMVVVHDDVNEAAGGGVRADATFKIVGLGDILGNKAVKELGLLKGVDENWDPRK
Question: For B1, which Km is on record?
Answer: Its Km is 1015 µM.

Question: And the kcat?
Answer: The kcat was 13.57 s⁻¹.
